Reference: paper PMC3942068, “Pharmacological characteristics and efficacy of a novel anti-angiogenic antibody FD006 in corneal neovascularization” (BMC Biotechnology, 2014)

Assays:
[1] = target: T1, Vascular endothelial growth factor (VEGF) (Homo sapiens (assumed), UniProt P15692-4); assay: cell-based or functional assay
[2] = target: T1, Vascular endothelial growth factor …; assay: BLI; Octet RED; anti-human IgG biosensor pre-saturated with bevacizumab or FD006 (10 ug/ml); VEGF at 10, 3 and 1 ug/ml in solution; 30°C, PBS; association 5 min, dissociation 10 min; non-linear global fit; details: both partners purified

T1 sequence (P15692 whole entry): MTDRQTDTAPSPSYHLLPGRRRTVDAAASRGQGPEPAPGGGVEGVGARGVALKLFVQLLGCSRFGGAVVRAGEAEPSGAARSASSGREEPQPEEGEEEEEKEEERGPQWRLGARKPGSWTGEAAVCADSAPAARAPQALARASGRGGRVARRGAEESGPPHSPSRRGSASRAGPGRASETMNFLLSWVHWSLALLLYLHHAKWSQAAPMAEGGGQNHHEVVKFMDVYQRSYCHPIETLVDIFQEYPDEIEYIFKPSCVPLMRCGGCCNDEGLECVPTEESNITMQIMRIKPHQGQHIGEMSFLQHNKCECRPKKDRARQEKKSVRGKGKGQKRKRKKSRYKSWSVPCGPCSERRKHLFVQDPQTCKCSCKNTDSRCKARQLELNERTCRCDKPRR

B1: FD006 (antibody, V domains shown)
VH: EVQLVQSGGGLVKPGGSLRLSCAASGFTLNASWIHWVRQAPGKGLEWVGAIYPYSGYSNYADSVKGRFTISADTSKNTLYLQMNSLRAEDTAVYYCARWGHSTSPYSAMDYWGQGTLVTVSS
VL: DIVMTQSPSSLSVSLGERVTITCRASQVLSRSLAWYQQKPGKAPKLLIYAASNVASGVPSRFSGSGSGTDFTLTISSLQPEDFATYYCQQSNTSPVTFGQGTKVEIK
notes: VH of FD006; heavy chain constant region of the full IgG; VL of FD006; light chain constant region of the full IgG; also called novel anti-VEGFA IgG; anti-VEGF monoclonal antibody FD006; source: recombinant vector transfected into mammalian cells, purified; prepared in our lab
IC50 of inhibition of VEGF-induced proliferation of HUVEC (antibody pre-incubated with 10 ng/ml VEGF, 72 h, CCK8) [1]: ~0.031 µg/mL | Kd [2]: 311 pM | koff [2]: 4.59e-05 s⁻¹ | kon [2]: 148000 M⁻¹ s⁻¹
